# Data from patent US20210388087A1 (Chugai, published 2021).
# Molecular target: T1, Human CD137 ECD (human)
# T1 construct: entry includes C-terminal His-tag and biotin acceptor peptide; also called human CD137 extracellular domain; 4-1BB
# Experiment: Biacore SPR, vs parent H183/L072
# T1 sequence (chain, as listed by the source limits assumed): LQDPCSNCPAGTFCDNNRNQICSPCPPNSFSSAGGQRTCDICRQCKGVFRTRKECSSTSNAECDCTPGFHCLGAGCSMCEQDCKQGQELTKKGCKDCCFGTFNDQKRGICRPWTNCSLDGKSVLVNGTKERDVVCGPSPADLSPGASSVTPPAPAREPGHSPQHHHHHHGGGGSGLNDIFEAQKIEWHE
row,Binder,fold change of affinity
1,"H183/L072 VL E27aF (antibody, name in Kabat numbering, V domains shown, Dual-Ig) VH: QVQLVESGGGLVQPGRSLRLSCAASGFTFSNAWMHWVRQAPGKGLEWVAQIKDKGNAYAAYYAPSVKGRFTISRDDSKNSIYLQMNSLKTEDTAVYYCHYVHYASASTVLPAFGVDAWGQGTTVTVSS VL: DIVMTQSPLSLPVTPGEPASISCQASQFLVHMNRNTYLHWYQQKPGQAPRLLIYKVSNRFPGVPDRFSGSGSGTDFTLKISRVEAEDVGVYYCAQGTSVPFTFGQGTKLEIK",1.1 fold
2,"H183/L072 VL E27aN (antibody, name in Kabat numbering, V domains shown, Dual-Ig) VH: QVQLVESGGGLVQPGRSLRLSCAASGFTFSNAWMHWVRQAPGKGLEWVAQIKDKGNAYAAYYAPSVKGRFTISRDDSKNSIYLQMNSLKTEDTAVYYCHYVHYASASTVLPAFGVDAWGQGTTVTVSS VL: DIVMTQSPLSLPVTPGEPASISCQASQNLVHMNRNTYLHWYQQKPGQAPRLLIYKVSNRFPGVPDRFSGSGSGTDFTLKISRVEAEDVGVYYCAQGTSVPFTFGQGTKLEIK",0.9 fold
3,"H183/L072 VL E27aM (antibody, name in Kabat numbering, V domains shown, Dual-Ig) VH: QVQLVESGGGLVQPGRSLRLSCAASGFTFSNAWMHWVRQAPGKGLEWVAQIKDKGNAYAAYYAPSVKGRFTISRDDSKNSIYLQMNSLKTEDTAVYYCHYVHYASASTVLPAFGVDAWGQGTTVTVSS VL: DIVMTQSPLSLPVTPGEPASISCQASQMLVHMNRNTYLHWYQQKPGQAPRLLIYKVSNRFPGVPDRFSGSGSGTDFTLKISRVEAEDVGVYYCAQGTSVPFTFGQGTKLEIK",0.9 fold
4,"H183/L072 VL E27aL (antibody, name in Kabat numbering, V domains shown, Dual-Ig) VH: QVQLVESGGGLVQPGRSLRLSCAASGFTFSNAWMHWVRQAPGKGLEWVAQIKDKGNAYAAYYAPSVKGRFTISRDDSKNSIYLQMNSLKTEDTAVYYCHYVHYASASTVLPAFGVDAWGQGTTVTVSS VL: DIVMTQSPLSLPVTPGEPASISCQASQLLVHMNRNTYLHWYQQKPGQAPRLLIYKVSNRFPGVPDRFSGSGSGTDFTLKISRVEAEDVGVYYCAQGTSVPFTFGQGTKLEIK",0.9 fold
5,"H183/L072 VL E27aK (antibody, name in Kabat numbering, V domains shown, Dual-Ig) VH: QVQLVESGGGLVQPGRSLRLSCAASGFTFSNAWMHWVRQAPGKGLEWVAQIKDKGNAYAAYYAPSVKGRFTISRDDSKNSIYLQMNSLKTEDTAVYYCHYVHYASASTVLPAFGVDAWGQGTTVTVSS VL: DIVMTQSPLSLPVTPGEPASISCQASQKLVHMNRNTYLHWYQQKPGQAPRLLIYKVSNRFPGVPDRFSGSGSGTDFTLKISRVEAEDVGVYYCAQGTSVPFTFGQGTKLEIK",0.9 fold
6,"H183/L072 VL E27aI (antibody, name in Kabat numbering, V domains shown, Dual-Ig) VH: QVQLVESGGGLVQPGRSLRLSCAASGFTFSNAWMHWVRQAPGKGLEWVAQIKDKGNAYAAYYAPSVKGRFTISRDDSKNSIYLQMNSLKTEDTAVYYCHYVHYASASTVLPAFGVDAWGQGTTVTVSS VL: DIVMTQSPLSLPVTPGEPASISCQASQILVHMNRNTYLHWYQQKPGQAPRLLIYKVSNRFPGVPDRFSGSGSGTDFTLKISRVEAEDVGVYYCAQGTSVPFTFGQGTKLEIK",0.8 fold
7,"H183/L072 VL E27aG (antibody, name in Kabat numbering, V domains shown, Dual-Ig) VH: QVQLVESGGGLVQPGRSLRLSCAASGFTFSNAWMHWVRQAPGKGLEWVAQIKDKGNAYAAYYAPSVKGRFTISRDDSKNSIYLQMNSLKTEDTAVYYCHYVHYASASTVLPAFGVDAWGQGTTVTVSS VL: DIVMTQSPLSLPVTPGEPASISCQASQGLVHMNRNTYLHWYQQKPGQAPRLLIYKVSNRFPGVPDRFSGSGSGTDFTLKISRVEAEDVGVYYCAQGTSVPFTFGQGTKLEIK",1 fold
8,"H183/L072 VL E27aH (antibody, name in Kabat numbering, V domains shown, Dual-Ig) VH: QVQLVESGGGLVQPGRSLRLSCAASGFTFSNAWMHWVRQAPGKGLEWVAQIKDKGNAYAAYYAPSVKGRFTISRDDSKNSIYLQMNSLKTEDTAVYYCHYVHYASASTVLPAFGVDAWGQGTTVTVSS VL: DIVMTQSPLSLPVTPGEPASISCQASQHLVHMNRNTYLHWYQQKPGQAPRLLIYKVSNRFPGVPDRFSGSGSGTDFTLKISRVEAEDVGVYYCAQGTSVPFTFGQGTKLEIK",1.1 fold
